From patent US20060094672A1 (University of Texas, published 2006)
Bridge positions count the residues as written; N and C are the ends. Square brackets hold non-standard residues; d marks the D form. Ends that are not written are not given here. pY = N[C@@H](Cc1ccc(OP(=O)(O)O)cc1)C(=O)O

B1: soluble CPRECESIC (SEQ ID NO:56) peptide (peptide)
peptide: CPRECESIC
modifications: disulfide (positions not given here); not fully specified; also: mix of six MS peaks: possibly different disulfide positions and dimers

What was measured:
[1] = biological target: GST-β5cyto (GST fusion protein of the integrin β5 cytoplasmic domain) (UniProt P18084); assay: phage binding to coated wells; β5 colonies divided by BSA colonies
GST-β5cyto (GST fusion protein of the integrin β5 cytoplasmic domain), sequence (P18084 743-799): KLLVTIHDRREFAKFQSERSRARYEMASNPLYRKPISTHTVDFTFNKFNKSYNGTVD

[2] = biological target: GST-β5cyto (GST fusion protein of the integrin β5 cytoplasmic domain) (UniProt P18084); assay: phage binding to β5 cytoplasmic domain wells; colonies with Fyn-phosphorylated phage divided by colonies with unphosphorylated phage
[3] = biological target: GST-β5cyto (GST fusion protein of the integrin β5 cytoplasmic domain) (UniProt P18084); assay: phage binding to coated wells; β5 colonies divided by GST colonies
[4] = biological target: GST-β3cyto (GST fusion protein of the integrin β3 cytoplasmic domain) (UniProt P05106); assay: phage binding to β3 cytoplasmic domain wells; colonies with Fyn-phosphorylated phage divided by colonies with unphosphorylated phage
GST-β3cyto (GST fusion protein of the integrin β3 cytoplasmic domain), sequence (P05106 742-788): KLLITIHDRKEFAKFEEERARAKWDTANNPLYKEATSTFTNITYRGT

[5] = biological target: GST-β3cyto (GST fusion protein of the integrin β3 cytoplasmic domain) (UniProt P05106); assay: phage binding to coated wells; β3 colonies divided by BSA colonies
[6] = biological target: GST-β3cyto (GST fusion protein of the integrin β3 cytoplasmic domain) (UniProt P05106); assay: phage binding to coated wells; β3 colonies divided by GST colonies
[7] = biological target: GST-β5cyto (GST fusion protein of the integrin β5 cytoplasmic domain) (UniProt P18084); assay: phage binding to coated microtiter wells; colonies from β5-GST wells divided by colonies from BSA wells
[8] = biological target: GST-β5cyto (GST fusion protein of the integrin β5 cytoplasmic domain) (UniProt P18084); assay: phage binding to coated microtiter wells; colonies from β5-GST wells divided by colonies from GST wells
[9] = biological target: Aminopeptidase A (APA, EC 3.4.11.7) (UniProt Q07075 1-957, limits assumed); assay: cell-based or functional assay
Aminopeptidase A (APA, EC 3.4.11.7), sequence (Q07075 whole entry): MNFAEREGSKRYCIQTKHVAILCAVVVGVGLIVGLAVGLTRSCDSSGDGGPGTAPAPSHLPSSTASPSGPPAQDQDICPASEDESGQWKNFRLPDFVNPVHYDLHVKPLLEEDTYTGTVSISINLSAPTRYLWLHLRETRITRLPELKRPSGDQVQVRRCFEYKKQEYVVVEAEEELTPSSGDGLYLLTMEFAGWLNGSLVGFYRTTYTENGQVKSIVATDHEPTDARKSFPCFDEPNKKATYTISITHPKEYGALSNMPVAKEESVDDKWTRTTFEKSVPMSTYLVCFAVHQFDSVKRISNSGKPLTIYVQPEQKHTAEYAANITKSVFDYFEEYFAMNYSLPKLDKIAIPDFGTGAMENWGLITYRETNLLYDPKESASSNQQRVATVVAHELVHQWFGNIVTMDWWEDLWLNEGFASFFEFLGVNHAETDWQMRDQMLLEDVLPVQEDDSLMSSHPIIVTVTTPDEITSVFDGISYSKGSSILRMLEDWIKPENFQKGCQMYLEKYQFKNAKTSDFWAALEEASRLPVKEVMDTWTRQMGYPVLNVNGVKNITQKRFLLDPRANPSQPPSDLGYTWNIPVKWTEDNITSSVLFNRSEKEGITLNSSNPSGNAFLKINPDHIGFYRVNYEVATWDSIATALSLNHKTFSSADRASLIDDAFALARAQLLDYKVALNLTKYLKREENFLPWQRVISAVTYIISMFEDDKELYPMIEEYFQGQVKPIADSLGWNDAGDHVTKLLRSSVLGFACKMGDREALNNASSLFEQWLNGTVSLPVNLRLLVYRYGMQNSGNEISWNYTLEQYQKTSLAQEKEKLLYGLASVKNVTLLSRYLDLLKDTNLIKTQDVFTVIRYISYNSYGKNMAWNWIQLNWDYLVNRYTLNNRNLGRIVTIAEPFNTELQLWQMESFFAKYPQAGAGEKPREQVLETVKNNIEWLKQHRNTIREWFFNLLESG

[10] = biological target: T1, prohibitin (B cell receptor associated protein; prohibitin receptor protein complex) (mouse); assay: immunoprecipitation from mouse adipose tissue extract with peptide-(KLAKLAK)2 conjugates, SDS-PAGE (data not shown)
T1 sequence (P67778 2-272, looked up): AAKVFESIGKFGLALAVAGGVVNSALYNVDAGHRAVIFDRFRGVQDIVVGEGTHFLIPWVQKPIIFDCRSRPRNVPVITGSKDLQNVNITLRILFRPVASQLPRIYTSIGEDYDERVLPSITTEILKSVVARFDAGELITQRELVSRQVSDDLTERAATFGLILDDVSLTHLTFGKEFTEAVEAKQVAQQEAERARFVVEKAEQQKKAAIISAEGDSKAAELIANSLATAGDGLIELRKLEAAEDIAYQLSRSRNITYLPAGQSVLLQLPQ

[11] = biological target: GST-β3cyto (GST fusion protein of the integrin β3 cytoplasmic domain) (UniProt P05106); assay: phage binding to coated microtiter wells; colonies from β3-GST wells divided by colonies from BSA wells
[12] = biological target: GST-β3cyto (GST fusion protein of the integrin β3 cytoplasmic domain) (UniProt P05106); assay: phage binding to coated microtiter wells; colonies from β3-GST wells divided by colonies from GST wells

Row | Binder | β3 or β5/BSA [1] | Phos/Unphos [2] | β3 or β5/GST [3] | Phos/Unphos [4] | β3 or β5/BSA [5] | β3 or β5/GST [6] | other results
1 | TMLR[pY]TVRL (also: displayed on phage pIII) [Fyn-phosphorylated phage displaying … (SEQ ID NO:52)] | 2.2 | 14.3 | 3.4 |  |  |  | 
2 | GGGS[pY]RHVE (also: displayed on phage pIII) [Fyn-phosphorylated phage displaying … (SEQ ID NO:49)] |  |  |  | 13.2 | 5.3 | 1.5 | 
3 | TMLR[pY]FMFP (also: displayed on phage pIII) [Fyn-phosphorylated phage displaying … (SEQ ID NO:53)] | 3.8 | 4.2 | 2.3 |  |  |  | 
4 | RAIL[pY]RLAN (also: displayed on phage pIII) [Fyn-phosphorylated phage displaying … (SEQ ID NO:50)] |  |  |  | 2.8 | 20 | 1.3 | 
5 | CKLWQEDGY (also: displayed on phage pIII) [phage displaying … (SEQ ID NO:42)] |  |  |  |  |  |  | β5/BSA Ratio [7]: 665; β5/GST Ratio [8]: 1.8
6 | B1 |  |  |  |  |  |  | IC50 for inhibition of APA enzyme activity (α-glutamyl-p-nitroanilide, SK-RC-49/APA cells) [9]: 800 µM
7 | MLLG[pY]RFEK (also: displayed on phage pIII) [Fyn-phosphorylated phage displaying … (SEQ ID NO:51)] |  |  |  | 2.5 | 2.7 | 3.5 | 
8 | CKGGRAKDCGG[dK][dL][dA][dK][dL][dA][dK][dK][dL][dA][dK][dL][dA][dK] (disulfide 1-9) [… (SEQ ID NO:22) conjugated to (KLAKLAK)2 (SEQ ID NO:1)] |  |  |  |  |  |  | fold enrichment in the … precipitated fraction compared to the CARAC precipitated fraction [10]: > 10 >fold
9 | TLRK[pY]FHSS (also: displayed on phage pIII) [Fyn-phosphorylated phage displaying … (SEQ ID NO:54)] | 15.2 | 3.8 | 3.8 |  |  |  | 
10 | AGWLYMSWK [phage displaying … (SEQ ID NO:35)] |  |  |  |  |  |  | β3/BSA Ratio [11]: 2.4; β3/GST Ratio [12]: 1.8
